Assay results from PMC4507496 (Biochemical and biophysical research communications, 2015).

Target: T1, ATG7 W243A (human, UniProt O95352 1-703, W243A)
T1 sequence (looked up): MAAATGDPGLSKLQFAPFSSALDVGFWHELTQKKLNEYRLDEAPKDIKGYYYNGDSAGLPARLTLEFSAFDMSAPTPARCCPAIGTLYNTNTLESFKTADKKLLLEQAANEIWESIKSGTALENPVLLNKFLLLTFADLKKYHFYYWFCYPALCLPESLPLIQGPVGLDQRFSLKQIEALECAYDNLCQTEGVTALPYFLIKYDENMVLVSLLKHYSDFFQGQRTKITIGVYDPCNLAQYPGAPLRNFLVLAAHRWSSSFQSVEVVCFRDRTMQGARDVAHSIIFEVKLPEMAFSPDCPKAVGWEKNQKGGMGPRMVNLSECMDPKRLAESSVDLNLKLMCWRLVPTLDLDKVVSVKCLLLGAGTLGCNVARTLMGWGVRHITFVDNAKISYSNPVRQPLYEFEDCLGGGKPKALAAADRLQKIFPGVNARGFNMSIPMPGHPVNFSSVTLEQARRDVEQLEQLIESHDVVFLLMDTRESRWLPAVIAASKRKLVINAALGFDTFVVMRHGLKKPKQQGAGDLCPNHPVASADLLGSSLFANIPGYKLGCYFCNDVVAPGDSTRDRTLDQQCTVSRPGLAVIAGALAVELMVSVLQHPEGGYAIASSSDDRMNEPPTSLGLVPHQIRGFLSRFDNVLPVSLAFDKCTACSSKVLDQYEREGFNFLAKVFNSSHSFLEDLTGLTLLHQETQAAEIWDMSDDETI
Experiment: pull-down

binding result: binds
B1: GST-ATG3 (enzyme)
chain: not shown
